Measured values published in patent US20230272041A1 (DRAGONFLY THERAPEUTICS, published 2023).
Numbering of substitutions follows the chain as printed.

Assays:
[1] = biological target: T1, recombinant human CD16a V158 allele (human, UniProt P08637 17-208, site-specific biotinylation (site not stated)); assay: SPR (Biacore 8K), receptor captured on the chip via site-specific biotinylation; qualitative assessment
T1 construct: also called FcγRIIIA V158

[2] = biological target: T2, recombinant human CD16b (human, UniProt O75015 17-200, site-specific biotinylation (site not stated)); assay: as above
T2 construct: also called FcγRIIIB

[3] = biological target: T3, recombinant human CD16a F158 allele (human, UniProt P08637 17-208, site-specific biotinylation (site not stated)); assay: as above
T3 construct: also called FcγRIIIA F158

[4] = biological target: recombinant cynomolgus CD16 (cynomolgus, UniProt Q8SPW2 17-208, site-specific biotinylation (site not stated)); assay: as above
[5] = biological target: T4, recombinant human CD64 (human, UniProt P12314 16-288, limits assumed, site-specific biotinylation (site not stated)); assay: as above
T4 construct: also called FcγRI

[6] = biological target: T5, recombinant human CD32b (human, UniProt P31994 46-217, limits assumed, site-specific biotinylation (site not stated)); assay: as above
T5 construct: also called FcγRIIB
T5 sequence (looked up): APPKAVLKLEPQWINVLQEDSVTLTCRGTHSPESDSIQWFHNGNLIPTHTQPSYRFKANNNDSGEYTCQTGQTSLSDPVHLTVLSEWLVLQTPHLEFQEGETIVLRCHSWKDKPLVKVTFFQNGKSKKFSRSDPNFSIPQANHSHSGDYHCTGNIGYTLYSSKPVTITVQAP

[7] = biological target: T6, recombinant human CD32a R131 allele (human, UniProt P12318 36-218, limits assumed, site-specific biotinylation (site not stated)); assay: as above
T6 construct: also called FcγRIIA R131
T6 sequence (looked up): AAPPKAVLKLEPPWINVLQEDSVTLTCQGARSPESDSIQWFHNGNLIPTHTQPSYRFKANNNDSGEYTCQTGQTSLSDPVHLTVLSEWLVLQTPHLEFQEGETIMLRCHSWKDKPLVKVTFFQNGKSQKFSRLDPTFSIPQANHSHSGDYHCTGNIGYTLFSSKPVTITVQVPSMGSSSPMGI

[8] = biological target: T7, recombinant human CD32a H131 allele (human, UniProt P12318 36-218, limits assumed, site-specific biotinylation (site not stated)); assay: as above
T7 construct: also called FcγRIIA H131
T7 sequence (looked up): T6 sequence (looked up) with R132H

[9] = biological target: cynomolgus monkey FcRn (cynomolgus monkey, UniProt Q8SPV9 24-297; Q8SPW0 21-119); assay: FcRn binding at pH 6.0, reference IgG1 isotype control trastuzumab (method not stated in the paragraph)
[10] = biological target: human FcRn (human, UniProt P55899 24-297; P61769 21-119); assay: as above

recombinant cynomolgus CD16, sequence (Q8SPW2 17-208 limits assumed): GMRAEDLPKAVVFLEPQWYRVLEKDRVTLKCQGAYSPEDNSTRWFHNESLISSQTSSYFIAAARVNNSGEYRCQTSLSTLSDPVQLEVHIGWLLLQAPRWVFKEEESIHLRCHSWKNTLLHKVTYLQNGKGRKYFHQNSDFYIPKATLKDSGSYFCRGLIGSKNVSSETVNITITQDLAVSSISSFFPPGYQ
T3 sequence (P08637 17-208 limits assumed): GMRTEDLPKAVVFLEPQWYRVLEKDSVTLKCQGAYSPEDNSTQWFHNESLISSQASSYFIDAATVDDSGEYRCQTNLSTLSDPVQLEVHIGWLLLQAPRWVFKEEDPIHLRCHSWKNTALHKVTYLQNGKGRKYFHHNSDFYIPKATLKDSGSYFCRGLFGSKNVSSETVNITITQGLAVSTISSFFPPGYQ
T2 sequence (O75015 17-200 limits assumed): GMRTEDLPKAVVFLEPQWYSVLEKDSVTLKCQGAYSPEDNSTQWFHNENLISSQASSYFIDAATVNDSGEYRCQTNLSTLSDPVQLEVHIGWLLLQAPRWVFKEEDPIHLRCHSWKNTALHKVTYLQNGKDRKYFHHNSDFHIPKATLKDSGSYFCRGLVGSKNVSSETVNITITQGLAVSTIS
T1 sequence (P08637 17-208 F176V limits assumed): as the sequence (P08637 17-208 limits assumed) above, with F160V counted along it
T4 sequence (P12314 16-288 limits assumed): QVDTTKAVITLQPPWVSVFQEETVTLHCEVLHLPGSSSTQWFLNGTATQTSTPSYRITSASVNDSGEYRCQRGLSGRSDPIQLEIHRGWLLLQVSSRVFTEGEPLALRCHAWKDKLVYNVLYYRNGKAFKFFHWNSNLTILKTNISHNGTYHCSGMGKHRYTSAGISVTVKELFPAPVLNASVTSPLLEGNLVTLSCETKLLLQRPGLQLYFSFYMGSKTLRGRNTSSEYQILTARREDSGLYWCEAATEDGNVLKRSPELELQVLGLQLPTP
cynomolgus monkey FcRn, sequence (Q8SPV9 24-297 limits assumed, chain 1 of 2): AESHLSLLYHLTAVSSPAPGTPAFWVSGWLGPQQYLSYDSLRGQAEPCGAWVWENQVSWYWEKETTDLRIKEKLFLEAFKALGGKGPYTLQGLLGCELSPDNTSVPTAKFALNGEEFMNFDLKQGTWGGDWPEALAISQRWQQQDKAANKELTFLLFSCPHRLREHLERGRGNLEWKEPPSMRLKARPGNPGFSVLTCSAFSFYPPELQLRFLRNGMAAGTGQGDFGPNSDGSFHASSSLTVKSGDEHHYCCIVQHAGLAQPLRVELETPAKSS
cynomolgus monkey FcRn, sequence (Q8SPW0 21-119 limits assumed, chain 2 of 2): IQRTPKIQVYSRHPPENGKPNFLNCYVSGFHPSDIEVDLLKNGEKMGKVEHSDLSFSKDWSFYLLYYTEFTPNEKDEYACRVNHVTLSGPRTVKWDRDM

- binding result [1]: no binding
- binding result [2]: no binding
- binding result [3]: no binding
- binding result [4]: no binding
- binding result [5]: no binding
- binding result [6]: no binding
- binding result [7]: no binding
- binding result [8]: no binding
- fold difference in binding affinity value against trastuzumab [9]: < 1.5 fold
- fold difference in binding affinity value against trastuzumab [10]: < 1.5 fold
B1: DF-hIL-12-Fc si (Fc fusion)
chain 1: IWELKKDVYVVELDWYPDAPGEMVVLTCDTPEEDGITWTLDQSSEVLGSGKTLTIQVKEFGDAGQYTCHKGGEVLSHSLLLLHKKEDGIWSTDILKDQKEPKNKTFLRCEAKNYSGRFTCWWLTTISTDLTFSVKSSRGSSDPQGVTCGAATLSAERVRGDNKEYEYSVECQEDSACPAAEESLPIEVMVDAVHKLKYENYTSSFFIRDIIKPDPPKNLQLKPLKNSRQVEVSWEYPDTWSTPHSYFSLTFCVQVQGKSKREKKDRVFTDKTSATVICRKNASISVRAQDRYYSSSWSEWASVPCSPKSSDKTHTCPPCPAPEAAGGPSVFLFPPKPKDTLMISRTPEVTCVVVDVSHEDPEVKFNWYVDGVEVHNAKTKPREEQYNSTYRVVSVLTVLHQDWLNGKEYKCKVSNKALAAPIEKTISKAKGQPREPQVCTLPPSRDELTENQVSLTCLVKGFYPSDIAVEWESNGQPENNYKTTPPVLDSDGSFFLYSWLTVDKSRWQQGNVFSCSVMHEALHNHYTQKSLSLSPG
chain 2: RNLPVATPDPGMFPCLHHSQNLLRAVSNMLQKARQTLEFYPCTSEEIDHEDITKDKTSTVEACLPLELTKNESCLNSRETSFITNGSCLASRKTSFMMALCLSSIYEDLKMYQVEFKTMNAKLLMDPKRQIFLDQNMLAVIDELMQALNFNSETVPQKSSLEEPDFYKTKIKLCILLHAFRIRAVTIDRVMSYLNASGGGGSGGGGSGGGGSEPKSSDKTHTCPPCPAPEAAGGPSVFLFPPKPKDTLMISRTPEVTCVVVDVSHEDPEVKFNWYVDGVEVHNAKTKPREEQYNSTYRVVSVLTVLHQDWLNGKEYKCKVSNKALAAPIEKTISKAKGQPREPRVYTLPPCRDELTKNQVSLTCLVKGFYPSDIAVEWESNGQPENNYKTTPPVLVSDGSFTLYSKLTVDKSRWQQGNVFSCSVMHEALHNHYTQKSLSLSPG
notes: also called DF IL-12-Fc; hIL-12-Fc-LALAPA
